Target: beta-klotho
Experiment: cell-based or functional assay

Row | EC50 (ELK-luciferase assay) | Binder
1 | 0.4 nM | human FGF21 (wild-type mature FGF21 polypeptide) (ligand) HPIPDSSPLLQFGGQVRQRYLYTDDAQQTEAHLEIREDGTVGGAADQSPESLLQLKALKPGVIQILGVKTSRFLCQRPDGALYGSLHFDPEACSFRELLLEDGYNVYQSEAHGLPLHLPGNKSPHRDPAPRGPARFLPLPGLPPAPPEPPGILAPQPPDVGSSDPLSMVGPSQGRSPSYAS

Target: beta-klotho
Experiment: cell-based or functional assay
Remark: another data set of the same source

Row | Binder | Efficacy (ELK-luciferase assay, relative to wild-type FGF21)
2 | FGF21 truncation mutant 1-174 (ligand) HPIPDSSPLLQFGGQVRQRYLYTDDAQQTEAHLEIREDGTVGGAADQSPESLLQLKALKPGVIQILGVKTSRFLCQRPDGALYGSLHFDPEACSFRELLLEDGYNVYQSEAHGLPLHLPGNKSPHRDPAPRGPARFLPLPGLPPAPPEPPGILAPQPPDVGSSDPLSMVGPSQG | 105%
3 | FGF21 truncation mutant 1-166 (ligand) HPIPDSSPLLQFGGQVRQRYLYTDDAQQTEAHLEIREDGTVGGAADQSPESLLQLKALKPGVIQILGVKTSRFLCQRPDGALYGSLHFDPEACSFRELLLEDGYNVYQSEAHGLPLHLPGNKSPHRDPAPRGPARFLPLPGLPPAPPEPPGILAPQPPDVGSSDPL | ~20%
4 | FGF21 truncation mutant 1-167 (ligand) HPIPDSSPLLQFGGQVRQRYLYTDDAQQTEAHLEIREDGTVGGAADQSPESLLQLKALKPGVIQILGVKTSRFLCQRPDGALYGSLHFDPEACSFRELLLEDGYNVYQSEAHGLPLHLPGNKSPHRDPAPRGPARFLPLPGLPPAPPEPPGILAPQPPDVGSSDPLS | ~20%
5 | FGF21 truncation mutant 1-172 (ligand) HPIPDSSPLLQFGGQVRQRYLYTDDAQQTEAHLEIREDGTVGGAADQSPESLLQLKALKPGVIQILGVKTSRFLCQRPDGALYGSLHFDPEACSFRELLLEDGYNVYQSEAHGLPLHLPGNKSPHRDPAPRGPARFLPLPGLPPAPPEPPGILAPQPPDVGSSDPLSMVGPS | 97.5%
6 | FGF21 truncation mutant 1-173 (ligand) HPIPDSSPLLQFGGQVRQRYLYTDDAQQTEAHLEIREDGTVGGAADQSPESLLQLKALKPGVIQILGVKTSRFLCQRPDGALYGSLHFDPEACSFRELLLEDGYNVYQSEAHGLPLHLPGNKSPHRDPAPRGPARFLPLPGLPPAPPEPPGILAPQPPDVGSSDPLSMVGPSQ | 96.1%
7 | FGF21 truncation mutant 1-176 (ligand) HPIPDSSPLLQFGGQVRQRYLYTDDAQQTEAHLEIREDGTVGGAADQSPESLLQLKALKPGVIQILGVKTSRFLCQRPDGALYGSLHFDPEACSFRELLLEDGYNVYQSEAHGLPLHLPGNKSPHRDPAPRGPARFLPLPGLPPAPPEPPGILAPQPPDVGSSDPLSMVGPSQGRS | 105%
8 | FGF21 truncation mutant 1-169 (ligand) HPIPDSSPLLQFGGQVRQRYLYTDDAQQTEAHLEIREDGTVGGAADQSPESLLQLKALKPGVIQILGVKTSRFLCQRPDGALYGSLHFDPEACSFRELLLEDGYNVYQSEAHGLPLHLPGNKSPHRDPAPRGPARFLPLPGLPPAPPEPPGILAPQPPDVGSSDPLSMV | 84.9%
9 | FGF21 truncation mutant 1-165 (ligand) HPIPDSSPLLQFGGQVRQRYLYTDDAQQTEAHLEIREDGTVGGAADQSPESLLQLKALKPGVIQILGVKTSRFLCQRPDGALYGSLHFDPEACSFRELLLEDGYNVYQSEAHGLPLHLPGNKSPHRDPAPRGPARFLPLPGLPPAPPEPPGILAPQPPDVGSSDP | ~10%
10 | FGF21 truncation mutant 1-171 (ligand) HPIPDSSPLLQFGGQVRQRYLYTDDAQQTEAHLEIREDGTVGGAADQSPESLLQLKALKPGVIQILGVKTSRFLCQRPDGALYGSLHFDPEACSFRELLLEDGYNVYQSEAHGLPLHLPGNKSPHRDPAPRGPARFLPLPGLPPAPPEPPGILAPQPPDVGSSDPLSMVGP | 113%

Results, then the binder that gave them:

Row | Efficacy (ELK-luciferase assay, relative to wild-type FGF21) | Binder
11 | 74.2% | FGF21 truncation mutant 7-181 (ligand) SPLLQFGGQVRQRYLYTDDAQQTEAHLEIREDGTVGGAADQSPESLLQLKALKPGVIQILGVKTSRFLCQRPDGALYGSLHFDPEACSFRELLLEDGYNVYQSEAHGLPLHLPGNKSPHRDPAPRGPARFLPLPGLPPAPPEPPGILAPQPPDVGSSDPLSMVGPSQGRSPSYAS
12 | 120% | FGF21 truncation mutant 5-181 (ligand) DSSPLLQFGGQVRQRYLYTDDAQQTEAHLEIREDGTVGGAADQSPESLLQLKALKPGVIQILGVKTSRFLCQRPDGALYGSLHFDPEACSFRELLLEDGYNVYQSEAHGLPLHLPGNKSPHRDPAPRGPARFLPLPGLPPAPPEPPGILAPQPPDVGSSDPLSMVGPSQGRSPSYAS
13 | 93.2% | FGF21 truncation mutant 1-180 (ligand) HPIPDSSPLLQFGGQVRQRYLYTDDAQQTEAHLEIREDGTVGGAADQSPESLLQLKALKPGVIQILGVKTSRFLCQRPDGALYGSLHFDPEACSFRELLLEDGYNVYQSEAHGLPLHLPGNKSPHRDPAPRGPARFLPLPGLPPAPPEPPGILAPQPPDVGSSDPLSMVGPSQGRSPSYA
14 | 95% | FGF21 truncation mutant 1-178 (ligand) HPIPDSSPLLQFGGQVRQRYLYTDDAQQTEAHLEIREDGTVGGAADQSPESLLQLKALKPGVIQILGVKTSRFLCQRPDGALYGSLHFDPEACSFRELLLEDGYNVYQSEAHGLPLHLPGNKSPHRDPAPRGPARFLPLPGLPPAPPEPPGILAPQPPDVGSSDPLSMVGPSQGRSPS
15 | 117% | FGF21 truncation mutant 4-181 (ligand) PDSSPLLQFGGQVRQRYLYTDDAQQTEAHLEIREDGTVGGAADQSPESLLQLKALKPGVIQILGVKTSRFLCQRPDGALYGSLHFDPEACSFRELLLEDGYNVYQSEAHGLPLHLPGNKSPHRDPAPRGPARFLPLPGLPPAPPEPPGILAPQPPDVGSSDPLSMVGPSQGRSPSYAS
16 | 112% | FGF21 truncation mutant 2-181 (ligand) PIPDSSPLLQFGGQVRQRYLYTDDAQQTEAHLEIREDGTVGGAADQSPESLLQLKALKPGVIQILGVKTSRFLCQRPDGALYGSLHFDPEACSFRELLLEDGYNVYQSEAHGLPLHLPGNKSPHRDPAPRGPARFLPLPGLPPAPPEPPGILAPQPPDVGSSDPLSMVGPSQGRSPSYAS
17 | 112% | FGF21 truncation mutant 1-177 (ligand) HPIPDSSPLLQFGGQVRQRYLYTDDAQQTEAHLEIREDGTVGGAADQSPESLLQLKALKPGVIQILGVKTSRFLCQRPDGALYGSLHFDPEACSFRELLLEDGYNVYQSEAHGLPLHLPGNKSPHRDPAPRGPARFLPLPGLPPAPPEPPGILAPQPPDVGSSDPLSMVGPSQGRSP
18 | 24.9% | FGF21 truncation mutant 8-181 (ligand) PLLQFGGQVRQRYLYTDDAQQTEAHLEIREDGTVGGAADQSPESLLQLKALKPGVIQILGVKTSRFLCQRPDGALYGSLHFDPEACSFRELLLEDGYNVYQSEAHGLPLHLPGNKSPHRDPAPRGPARFLPLPGLPPAPPEPPGILAPQPPDVGSSDPLSMVGPSQGRSPSYAS
19 | 12.5% | FGF21 truncation mutant 9-181 (ligand) LLQFGGQVRQRYLYTDDAQQTEAHLEIREDGTVGGAADQSPESLLQLKALKPGVIQILGVKTSRFLCQRPDGALYGSLHFDPEACSFRELLLEDGYNVYQSEAHGLPLHLPGNKSPHRDPAPRGPARFLPLPGLPPAPPEPPGILAPQPPDVGSSDPLSMVGPSQGRSPSYAS
20 | 130% | FGF21 truncation mutant 3-181 (ligand) IPDSSPLLQFGGQVRQRYLYTDDAQQTEAHLEIREDGTVGGAADQSPESLLQLKALKPGVIQILGVKTSRFLCQRPDGALYGSLHFDPEACSFRELLLEDGYNVYQSEAHGLPLHLPGNKSPHRDPAPRGPARFLPLPGLPPAPPEPPGILAPQPPDVGSSDPLSMVGPSQGRSPSYAS
